# Experimental data from patent US20240360195A1 (HELMHOLTZ ZENTRUM M NCHEN DEUTSCHES FORSCHUNGSZENTRUM F R …, published 2024).
# B1: Fab6A10 dimer (other)
# heavy: QVQLKESGPGLVQPSETLSLTCTVSGFSLTTYSVSWVRQPSGKGPEWMGRMWYDGDTVYNSALKSRLSISRDTSKNQVFLKMNSLETDETGTYYCTRDFGYFDGSSPFDYWGQGVMVTVSSASTKGPSVFPLAPSSKSTSGGTAALGCLVKDYFPEPVTVSWNSGALTSGVHTFPAVLQSSGLYSLSSVVTVPSSSLGTQTYICNVNHKPSNTKVDKKVEPKSCDKTHT
# light: RCPVDIVLTQSPATLSVTPGESVSLSCRASQGISTSIHWYQQKSNESPRLLIKFASQSISGIPSRFSGSGSGTDFTLSINRVESEDFSVYFCQQTYSLPYTFGAGTKLELKRTVAAPSVFIFPPSDEQLKSGTASVVCLLNNFYPREAKVQWKVDNALQSGNSQESVTEQDSKDSTYSLSSTLTLSKADYEKHKVYACEVTHQGLSSPVTKSFNRGEC
# modifications: additional non-naturally occurring cysteine at the N-terminus of the VL region (N-terminus RCPVDIVLTQ..., SEQ ID NO: 18) forms a disulfide bond with the same cysteine of the second Fab monomer
# notes: also called 6A10 Fab dimers; 6A10Fab dimers
# Biological target: T1, human carbonic anhydrase XII (CA12) on A549 lung cancer cells (human, UniProt O43570 25-354)
# T1 construct: whole, on cells; No recombinant protein was used; also called CA-XII; CA XII
# Experiment: flow cytometry on A549 cells, serial dilution, Cy5-labeled donkey anti-human IgG secondary, pH 7.4
# Procedure: 50.000 A549 cells were incubated with a serial dilution of Monomers or Dimers (6A10). After washing, cells were incubated with a Cy5-labeled secondary antibody (donkey anti-human IgG light and heavy chain). Binding of the secondary antibody was analyzed with a BD FACSCanto and the DIVA software. RU=relative light units.
# After washing, cells were incubated with a Cy5-labeled secondary antibody (donkey anti-human IgG light and heavy chain). Binding of the secondary antibody was analyzed with a BD FACSCanto and the DIVA software. RU=relative light units.
# CA12-positive A549 cells were incubated with different amounts of Fab6A10 dimers or Fab6A 10 monomers at the indicated pH, followed by an incubation of a suitable Cy5-labeled secondary antibody at neutral pH (approx. 7.2).
# T1 sequence (O43570 25-354): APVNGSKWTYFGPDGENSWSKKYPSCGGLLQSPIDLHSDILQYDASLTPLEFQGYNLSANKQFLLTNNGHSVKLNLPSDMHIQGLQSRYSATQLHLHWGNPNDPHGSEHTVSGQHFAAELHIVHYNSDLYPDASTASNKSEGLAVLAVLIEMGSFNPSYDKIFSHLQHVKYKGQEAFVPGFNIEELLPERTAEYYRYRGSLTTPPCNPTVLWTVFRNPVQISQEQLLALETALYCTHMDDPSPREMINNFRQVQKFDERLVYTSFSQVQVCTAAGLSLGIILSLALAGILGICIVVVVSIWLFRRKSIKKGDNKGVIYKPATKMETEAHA
binder,measurement,value
B1,binding result,binds
